Laboratory results reported in article PMC7116876, “Mechanistic Insights into Regulation of the ALC1 Remodeler by the Nucleosome Acidic Patch” (Cell reports, 2020).

Test system: sites of DNA damage in U2OS cells
Assay: Recruitment of YFP-ALC1 to DNA breaks upon laser damage
Format: cell-based, Homo sapiens
Settings: YFP-ALC1 R860W background, 405 nm laser damage
Protocol: U2OS Flp-In T-REx cells were a kind gift from Durocher lab and maintained in DMEM medium (GIBCO/Thermo Fisher) supplemented with 10% FBS and Pen/Strep with 15.5 μg/ml zeocin (Invitrogen) and 4 μg/ml blasticidin. CRISPR inactivation of ALC1 was carried out in Flp-In T-REx U2OS cells by transiently expressing Cas9 and gRNA targeting Exon3 of ALC1 F-oligo: CACCGCAG GAAGATTAAATGATGAA R-oligo: […] with px459 (addgene) ([Ran et al., 2013]). Single cell clones were grown by limiting dilution and then screened for ALC1 expression by western blot. […]
Cells were seeded on 8 well Lab-Tek chamber slides (Thermo Fisher Scientific). […] In order to monitor the association kineticsof YFP-tagged ALC1 at sites of laser micro-irradiation, the time evolution of YFP fluorescence in the damaged region of interest was recorded upon excitation with a 488 nm laser. Recruitment of YFP to bleached ROIs was analyzed in FIJI ([Schindelin et al., 2012]) and data were processed in R. In brief, nuclear masks were segmented by local thresholding. […] In order to quantify recruitment, the mean YFP fluorescence intensities at a given time point t (It) were normalized to the mean initial fluorescence intensities I0 of the same region of interest. Normalized intensities were additionally multiplied with BGI0/BGIt to correct for photobleaching, where BGI represents the background fluorescence intensity. […]

B1: R611A/S612A: YFP-ALC1 with R611A/S612A linker mutation and R860W, expressed in U2OS cells (protein, UniProt Q86WJ1 1-897, looked up, variant R611A S612A R860W)
Chromodomain-helicase-DNA-bind …: MERAGATSRGGQAPGFLLRLHTEGRAEAARVQEQDLRQWGLTGIHLRSYQLEGVNWLAQRFHCQNGCILGDEMGLGKTCQTIALFIYLAGRLNDEGPFLILCPLSVLSNWKEEMQRFAPGLSCVTYAGDKEERACLQQDLKQESRFHVLLTTYEICLKDASFLKSFPWSVLVVDEAHRLKNQSSLLHKTLSEFSVVFSLLLTGTPIQNSLQELYSLLSFVEPDLFSKEEVGDFIQRYQDIEKESESASELHKLLQPFLLRRVKAEVATELPKKTEVVIYHGMSALQKKYYKAILMKDLDAFENETAKKVKLQNILSQLRKCVDHPYLFDGVEPEPFEVGDHLTEASGKLHLLDKLLAFLYSGGHRVLLFSQMTQMLDILQDYMDYRGYSYERVDGSVRGEERHLAIKNFGQQPIFVFLLSTRAGGVGMNLTAADTVIFVDSDFNPQNDLQAAARAHRIGQNKSVKVIRLIGRDTVEEIVYRKAASKLQLTNMIIEGGHFTLGAQKPAADADLQLSEILKFGLDKLLASEGSTMDEIDLESILGETKDGQWVSDALPAAEGGSRDQEEGKNHMYLFEGKDYSKEPSKEDRKSFEQLVNLQKTLLEKASQEGAALRNKGSVLIPGLVEGSTKRKRVLSPEELEDRQKKRQEAAAKRRRLIEEKKRQKEEAEHKKKMAWWESNNYQSFCLPSEESEPEDLENGEESSAELDYQDPDATSLKYVSGDVTHPQAGAEDALIVHCVDDSGHWGRGGLFTALEKRSAEPRKIYELAGKMKDLSLGGVLLFPVDDKESRNKGQDLLALIVAQHRDRSNVLSGIKMAALEEGLKKIFLAAKKKKASVHLPRIGHATKGFNWYGTERLIWKHLAARGIPTYIYYFPRSKSAVLHSQSSSSSSRQLVP
modifications: YFP fusion
notes: YFP-ALC1 with R611A/S612A linker mutation and R860W, expressed in U2OS cells
N ≥ 131 traces from 3 independent experiments
  overall extent of ALC1 recruitment to sites of DNA damage: notably compromised the overall extent of ALC1 recruitment
single-exponential half times, n ≥ 131 traces
  recruitment kinetics at sites of DNA damage: only modestly delayed recruitment kinetics
